Measurements from article doi:10.1101/2020.01.02.893370 (bioRxiv, 2020).

Experiments:
[1] = biological target: sigma70 (RpoD);RNAP core enzyme wild type (alpha2 beta beta' omega) (Escherichia coli;Escherichia coli, UniProt P00579;P0A7Z4;P0A8V2;P0A8T7;P0A800 1-613;1-329;1-1342;1-1407;1-91, |); assay: DNase I footprinting
[2] = biological target: E. coli RNA polymerase β′ subunit (E. coli, UniProt P0A8T7 1-1407); assay: cryo-EM structure
Chain of E. coli RNA polymerase β′ subunit (P0A8T7 whole entry): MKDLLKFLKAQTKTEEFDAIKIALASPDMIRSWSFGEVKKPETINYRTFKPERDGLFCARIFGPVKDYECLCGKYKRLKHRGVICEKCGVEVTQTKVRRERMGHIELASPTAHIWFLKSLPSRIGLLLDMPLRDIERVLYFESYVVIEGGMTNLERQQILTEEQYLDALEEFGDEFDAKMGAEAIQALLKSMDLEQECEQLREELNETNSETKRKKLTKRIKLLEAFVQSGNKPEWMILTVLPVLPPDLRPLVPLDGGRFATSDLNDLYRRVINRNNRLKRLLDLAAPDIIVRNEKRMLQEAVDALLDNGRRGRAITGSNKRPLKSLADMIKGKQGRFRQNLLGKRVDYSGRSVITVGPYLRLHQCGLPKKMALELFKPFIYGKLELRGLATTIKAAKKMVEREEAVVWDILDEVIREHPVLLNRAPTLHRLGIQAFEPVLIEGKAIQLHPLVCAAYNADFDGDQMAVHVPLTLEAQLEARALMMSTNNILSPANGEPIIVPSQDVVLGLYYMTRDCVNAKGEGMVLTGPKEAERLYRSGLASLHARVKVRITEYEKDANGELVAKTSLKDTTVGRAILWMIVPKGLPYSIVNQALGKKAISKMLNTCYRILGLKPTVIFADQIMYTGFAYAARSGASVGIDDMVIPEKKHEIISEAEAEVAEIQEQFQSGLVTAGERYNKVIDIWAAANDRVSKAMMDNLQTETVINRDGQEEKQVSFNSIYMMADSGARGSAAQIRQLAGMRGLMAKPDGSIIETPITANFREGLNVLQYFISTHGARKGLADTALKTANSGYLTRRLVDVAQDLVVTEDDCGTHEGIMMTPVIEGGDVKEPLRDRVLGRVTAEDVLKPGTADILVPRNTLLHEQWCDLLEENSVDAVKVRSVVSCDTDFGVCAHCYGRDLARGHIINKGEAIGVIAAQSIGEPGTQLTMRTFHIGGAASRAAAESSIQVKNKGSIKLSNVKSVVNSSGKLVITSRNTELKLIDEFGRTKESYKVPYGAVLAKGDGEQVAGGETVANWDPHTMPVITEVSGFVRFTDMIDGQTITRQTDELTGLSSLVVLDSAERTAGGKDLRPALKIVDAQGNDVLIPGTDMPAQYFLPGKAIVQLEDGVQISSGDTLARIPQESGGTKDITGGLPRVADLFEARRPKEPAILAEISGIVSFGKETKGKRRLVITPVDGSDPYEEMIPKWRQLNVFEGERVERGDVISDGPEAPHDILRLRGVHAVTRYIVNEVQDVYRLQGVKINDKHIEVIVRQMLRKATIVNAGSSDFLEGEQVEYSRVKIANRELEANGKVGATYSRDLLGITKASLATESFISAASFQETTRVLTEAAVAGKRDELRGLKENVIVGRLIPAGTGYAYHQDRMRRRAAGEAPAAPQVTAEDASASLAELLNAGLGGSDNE

Chain of sigma70 (RpoD);RNAP core enzyme wild type (alpha2 beta beta' omega) (P00579 whole entry, chain 1 of 4): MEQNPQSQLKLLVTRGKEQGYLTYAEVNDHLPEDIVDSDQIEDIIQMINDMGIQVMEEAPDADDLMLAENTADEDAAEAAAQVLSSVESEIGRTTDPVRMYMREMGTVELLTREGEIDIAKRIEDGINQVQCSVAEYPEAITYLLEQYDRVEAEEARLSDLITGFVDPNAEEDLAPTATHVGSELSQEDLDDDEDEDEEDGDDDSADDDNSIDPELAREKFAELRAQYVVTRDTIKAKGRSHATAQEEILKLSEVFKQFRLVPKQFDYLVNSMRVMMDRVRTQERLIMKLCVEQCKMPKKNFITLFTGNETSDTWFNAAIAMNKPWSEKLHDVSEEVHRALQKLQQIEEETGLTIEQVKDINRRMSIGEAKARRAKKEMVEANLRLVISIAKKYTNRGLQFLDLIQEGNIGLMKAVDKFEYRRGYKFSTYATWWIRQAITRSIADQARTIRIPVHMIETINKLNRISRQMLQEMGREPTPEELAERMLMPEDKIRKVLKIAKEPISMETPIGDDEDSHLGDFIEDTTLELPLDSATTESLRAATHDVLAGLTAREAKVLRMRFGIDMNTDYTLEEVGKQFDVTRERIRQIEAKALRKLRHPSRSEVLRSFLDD
Chain of sigma70 (RpoD);RNAP core enzyme wild type (alpha2 beta beta' omega) (P0A7Z4 whole entry, chain 2 of 4): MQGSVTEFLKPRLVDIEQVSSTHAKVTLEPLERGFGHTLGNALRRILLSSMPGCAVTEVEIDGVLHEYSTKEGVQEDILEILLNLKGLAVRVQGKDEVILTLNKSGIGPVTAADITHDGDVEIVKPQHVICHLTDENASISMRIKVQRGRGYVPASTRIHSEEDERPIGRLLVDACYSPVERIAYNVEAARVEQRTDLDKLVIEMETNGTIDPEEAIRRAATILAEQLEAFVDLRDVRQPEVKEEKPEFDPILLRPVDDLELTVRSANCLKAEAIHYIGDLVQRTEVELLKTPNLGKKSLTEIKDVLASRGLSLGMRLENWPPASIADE
Chain of sigma70 (RpoD);RNAP core enzyme wild type (alpha2 beta beta' omega) (P0A8V2 whole entry, chain 3 of 4): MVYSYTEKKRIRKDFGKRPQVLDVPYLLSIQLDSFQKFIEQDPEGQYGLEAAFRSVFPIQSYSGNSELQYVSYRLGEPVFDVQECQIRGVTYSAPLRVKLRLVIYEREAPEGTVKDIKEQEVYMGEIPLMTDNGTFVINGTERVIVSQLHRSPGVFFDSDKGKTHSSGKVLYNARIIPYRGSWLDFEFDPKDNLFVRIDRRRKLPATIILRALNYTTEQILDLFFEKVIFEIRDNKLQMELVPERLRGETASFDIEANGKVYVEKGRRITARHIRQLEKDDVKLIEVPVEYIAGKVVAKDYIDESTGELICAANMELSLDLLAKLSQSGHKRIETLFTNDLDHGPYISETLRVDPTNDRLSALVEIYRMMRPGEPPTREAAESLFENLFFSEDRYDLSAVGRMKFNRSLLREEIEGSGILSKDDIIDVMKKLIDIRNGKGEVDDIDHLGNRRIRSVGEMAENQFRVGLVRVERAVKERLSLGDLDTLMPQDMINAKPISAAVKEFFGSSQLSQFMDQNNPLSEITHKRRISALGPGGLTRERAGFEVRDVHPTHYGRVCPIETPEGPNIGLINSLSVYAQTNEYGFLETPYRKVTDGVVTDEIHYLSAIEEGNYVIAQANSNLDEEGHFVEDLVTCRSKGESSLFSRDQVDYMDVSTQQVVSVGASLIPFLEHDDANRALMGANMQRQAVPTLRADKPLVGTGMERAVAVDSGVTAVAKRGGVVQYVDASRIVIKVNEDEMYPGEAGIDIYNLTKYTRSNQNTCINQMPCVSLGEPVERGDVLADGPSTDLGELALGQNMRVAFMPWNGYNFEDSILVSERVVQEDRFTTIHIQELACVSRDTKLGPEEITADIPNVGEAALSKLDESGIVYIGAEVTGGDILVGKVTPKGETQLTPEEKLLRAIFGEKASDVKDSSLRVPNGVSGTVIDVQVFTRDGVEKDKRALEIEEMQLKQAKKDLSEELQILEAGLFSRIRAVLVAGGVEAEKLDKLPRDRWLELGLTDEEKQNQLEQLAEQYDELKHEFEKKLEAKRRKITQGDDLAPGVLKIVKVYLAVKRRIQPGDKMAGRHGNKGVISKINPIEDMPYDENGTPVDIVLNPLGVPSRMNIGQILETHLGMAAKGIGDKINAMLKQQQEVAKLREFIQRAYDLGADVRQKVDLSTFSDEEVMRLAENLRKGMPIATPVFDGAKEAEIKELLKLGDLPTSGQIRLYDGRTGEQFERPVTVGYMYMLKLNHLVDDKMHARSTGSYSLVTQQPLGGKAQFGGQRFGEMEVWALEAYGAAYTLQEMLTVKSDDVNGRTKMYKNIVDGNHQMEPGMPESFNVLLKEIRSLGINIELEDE
Chain of sigma70 (RpoD);RNAP core enzyme wild type (alpha2 beta beta' omega) (P0A800 whole entry, chain 5 of 4): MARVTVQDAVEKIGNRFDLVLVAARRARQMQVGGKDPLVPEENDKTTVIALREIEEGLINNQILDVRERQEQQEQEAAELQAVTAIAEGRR

B1: lacUV5p (dsDNA)
DNA 1: CCCGCCGACAGGTTTCCCGACTGGAAAGCGGGCAGTGAGCGCAACGCAATTAATGTGAGTTAGCTCACTCATTAGGCACCCCAGGCTTTACACTTTATGCTTCCGGCTCGTATAATGTGTGGAATTGTGAGCGGATAACAATTTCACACAGGAAACAGCTATGACCATGGGCGCGG
DNA 2: CCGCGCCCATGGTCATAGCTGTTTCCTGTGTGAAATTGTTATCCGCTCACAATTCCACACATTATACGAGCCGGAAGCATAAAGTGTAAAGCCTGGGGTGCCTAATGAGTGAGCTAACTCACATTAATTGCGTTGCGCTCACTGCCCGCTTTCCAGTCGGGAAACCTGTCGGCGGG
Question: Does B1 bind [1]?
Answer: Result: binds

B2: E. coli σ^28 factor (natural protein, UniProt P0AEM6 1-239, looked up)
chain: MNSLYTAEGVMDKHSLWQRYVPLVRHEALRLQVRLPASVELDDLLQAGGIGLLNAVERYDALQGTAFTTYAVQRIRGAMLDELRSRDWVPRSVRRNAREVAQAIGQLEQELGRNATETEVAERLGIDIADYRQMLLDTNNSQLFSYDEWREEHGDSIELVTDDHQRENPLQQLLDSNLRQRVMEAIETLPEREKLVLTLYYQEELNLKEIGAVLEVGESRVSQLHSQAIKRLRTKLGKL
Question: Does B2 bind [2]?
Answer: Result: binds
